The values below come from publication PMC7263589, “Integration of phage and yeast display platforms: A reliable and cost effective approach for binning of peptides as displayed on-phage” (PLoS ONE, 2020).

The target in experiment [1] is T1, IL-23 (Homo sapiens, UniProt P29460+Q9NPF7).
T1 construct: made in house
T1 sequence (Q9NPF7 20-189): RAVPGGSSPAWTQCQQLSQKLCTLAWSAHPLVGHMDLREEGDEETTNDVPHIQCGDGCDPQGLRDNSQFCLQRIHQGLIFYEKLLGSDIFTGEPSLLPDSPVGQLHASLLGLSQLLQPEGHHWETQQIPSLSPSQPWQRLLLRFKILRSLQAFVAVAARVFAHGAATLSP
T1 sequence (P29460 23-328): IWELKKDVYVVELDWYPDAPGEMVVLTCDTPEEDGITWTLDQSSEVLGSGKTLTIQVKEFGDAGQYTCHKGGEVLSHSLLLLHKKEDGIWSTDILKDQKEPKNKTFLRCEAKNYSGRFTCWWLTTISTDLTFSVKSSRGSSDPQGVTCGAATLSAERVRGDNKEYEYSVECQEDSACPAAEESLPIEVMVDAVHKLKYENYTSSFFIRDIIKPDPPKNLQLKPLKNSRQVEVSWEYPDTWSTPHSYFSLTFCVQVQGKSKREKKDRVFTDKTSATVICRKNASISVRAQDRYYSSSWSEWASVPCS
Description: SPR direct binding to captured IL-23-AVI (Biacore T200). As to conditions: for kon: 50 μl/min, 10 mM HEPES pH 7.5, 150 mM NaCl, 0.005% P20, 3% DMSO, multi-cycle (single cycle kinetics for 23–652 and IL-23R), read-out: ka. The procedure: SPR (Biacore T200, GE Healthcare) was used to determine binding constants of the peptides against IL-23 and their competitiveness to IL-23R. All SPR experiments were performed at 25°C with flow rate of 50 μl/min. Assay buffer used in direct binding experiment was 10 mM HEPES pH 7.5, 150 mM NaCl, 0.005% P20, and 3% DMSO. Assay buffer used in competition experiment was 10 mM HEPES pH 7.5, 150 mM NaCl, 0.005% P20, and 1% BSA. All peptides were reconstituted first in DMSO as 10 mM stocks and then diluted into assay buffer. The proteins used in direct binding and competition SPR are described in S1 Table in S1 File. For direct binding of peptides against IL-23, 2000–9000 RU of IL-23-AVI was captured to streptavidin sensor chips (GE Healthcare, Series S Sensor Chip SA, BR-1005-31). Dilution series with 3-fold increment were prepared for each peptide. Initially, all peptides were tested up to 30 μM. Concentration range for some were then lowered accordingly based on affinity or nuisance behavior at high concentrations. SPR “multi-cycle” type was used for peptides 23–644, 23–437, 23–441, 23–446, and 23–447. Each cycle consisted of 30s of analyte injection and then 60s of buffer flow to monitor dissociation. “Single cycle kinetics” (SCK) type was used for 23–652 due to their long dissociation half-lives. Each SCK cycle consisted of five 60s injections of sample in increasing concentration with a final 600s of dissociation. To study IL-23 and IL-23R interaction, 200–1000 RU of IL-23-AVI and IL-23R-Fc-AVI were captured to streptavidin sensor chip. Dilution series with 3-fold increment of IL-23R-FLAG-HIS and IL-23-HIS were run in SCK cycle type as described above except the final dissociation time were 60-300s. Sensorgrams from the entire titration series for each sample were fitted globally to extract binding kinetics and affinity using Biacore T200 Evaluation Software 2.0 (GE Healthcare) according to a 1:1 binding model. To identify IL-23 binders that can block receptor binding, a competition SPR was established. In each SPR cycle, fresh IL-23R was capture (<1000 RU) by injecting 10 μg/ml of IL-23R-Fc-AVI to a Protein-A flow cell at 10 μl/min flow rate for 30s. Analyte consisted of a mixture of 20 nM of IL-23 protein and a single concentration of peptide was then injected for 30s at 50 μl/min to observe IL-23 binding. Finally, the Protein-A surface was regenerated by 10 mM Glycine pH 1.5 for 30s at 30 μl/min. IL-23 at 20 nM without peptide, “IL-23 only”, was used as control to quantify IL-23 binding without blockage; while “cold” IL-23R was used as a positive control for blockage.
(In general: In SPR one partner is held on a chip, and binding of the other changes the refractive index at the surface.)

For experiment [2], the target named is FGL-containing peptide phage (FGL Phage). Description: flow cytometry on yeast-displayed IL-23, phage detected with anti-M13-AF647. The following applies: n = 2; parent: est. 24; read off a plot. For orientation: In flow cytometry, cells or beads pass a laser one at a time.
In experiment [3] the target is T2, IL-23-AVI (human, UniProt Q9NPF7 20-189; P29460 23-328).
T2 construct: IL-23 p19 subunit, human; IL-12/IL-23 p40 subunit, human; Captured on streptavidin chips and beads, so biotinylation of the Avi tag is implied; also called Avi-tagged IL-23; recombinant IL-23
T2 sequence (looked up) 1: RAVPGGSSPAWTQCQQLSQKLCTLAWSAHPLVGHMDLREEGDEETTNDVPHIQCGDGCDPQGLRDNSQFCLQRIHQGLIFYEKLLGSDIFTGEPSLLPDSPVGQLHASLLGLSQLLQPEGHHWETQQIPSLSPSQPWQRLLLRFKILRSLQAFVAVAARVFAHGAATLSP
T2 sequence (looked up) 2: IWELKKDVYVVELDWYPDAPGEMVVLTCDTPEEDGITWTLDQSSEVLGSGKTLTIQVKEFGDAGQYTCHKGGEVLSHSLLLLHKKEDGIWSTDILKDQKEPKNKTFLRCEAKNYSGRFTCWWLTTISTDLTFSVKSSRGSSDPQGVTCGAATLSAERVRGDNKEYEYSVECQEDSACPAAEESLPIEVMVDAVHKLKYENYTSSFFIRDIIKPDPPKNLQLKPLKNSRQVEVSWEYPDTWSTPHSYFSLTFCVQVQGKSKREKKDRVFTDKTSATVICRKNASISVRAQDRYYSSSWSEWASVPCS
Description: SPR; Biacore T200, 25°C, 50 μl/min; 2000–9000 RU of IL-23-AVI captured to streptavidin chip, peptides as analyte (3-fold series, up to 30 μM); 10 mM HEPES pH 7.5, 150 mM NaCl, 0.005% P20, 3% DMSO; multi-cycle, single cycle kinetics for 23–652; 1:1 model; n = 1. The following applies: both partners purified.

The mark [4] stands for this setting: IL-23-AVI captured on streptavidin chip, 25°C, 1:1 binding model, n = 1, 23–447 an estimate.

Bridge positions count the residues as written; N and C are the ends. Peptide text beside a SMILES is read from it. Bounds are passed on as bounds.

For the molecule `CC(C)C[C@H](NC(=O)CN)C(=O)N[C@@H](CCCNC(=N)N)C(=O)N[C@@H](CCC(=O)O)C(=O)N[C@@H](CCCNC(=N)N)C(=O)N[C@H]1CSSC[C@@H](C(=O)N[C@@H](CCC(N)=O)C(=O)N[C@@H](CC(N)=O)C(=O)N[C@@H](Cc2c[nH]c3ccccc23)C(=O)N[C@@H](Cc2ccc(O)cc2)C(=O)N[C@@H](Cc2c[nH]c3ccccc23)C(=O)O)NC(=O)[C@H](Cc2ccccc2)NC(=O)[C@H](CCC(=O)O)NC(=O)[C@H](Cc2c[nH]cn2)NC(=O)CNC(=O)[C@H](Cc2ccc(O)cc2)NC(=O)[C@H](CC(N)=O)NC(=O)[C@H](CCCNC(=N)N)NC(=O)[C@H](C(C)C)NC1=O` [23–446] (H-GLRERCVRNYGHEFCQNWYW-OH; disulfide 6-15), the kon in experiment [1] (setting [4]) was 3.88e+06 M⁻¹ s⁻¹.

“wild-type IL-23 displayed on yeast (from UniProt Q9NPF7;P29460) W137A”: in experiment [2], the response amounted to 23.

`CC(C)C[C@@H]1NC(=O)CNC(=O)[C@H](Cc2ccccc2)NC(=O)[C@H](Cc2c[nH]c3ccccc23)NC(=O)[C@@H](NC(=O)[C@@H]2CCCN2C(=O)[C@H](CC(=O)O)NC(=O)[C@@H]2CCCN2C(=O)[C@@H](NC(=O)[C@@H](N)Cc2c[nH]cn2)C(C)C)CSSC[C@@H](C(=O)N[C@@H](CC(=O)O)C(=O)N[C@H](C(=O)N[C@@H](CC(C)C)C(=O)N[C@@H](CC(N)=O)C(=O)N[C@@H](CO)C(=O)O)C(C)C)NC(=O)[C@H](CC(C)C)NC1=O` [23–644] (H-HVPDPCWFGLLCDVLNS-OH; disulfide 6-12): the kon in experiment [1] (setting [4]) was 49300 M⁻¹ s⁻¹.

Regarding “wild-type IL-23 displayed on yeast (from UniProt Q9NPF7;P29460) L24A”, the response in experiment [2] turned out to be 17.

`CSCC[C@H](NC(=O)[C@H](CCC(N)=O)NC(=O)[C@@H]1CSSC[C@H](NC(=O)[C@H](Cc2ccccc2)NC(=O)[C@H](CO)NC(=O)[C@H](CCCCN)NC(=O)[C@@H](NC(=O)[C@H](CC(C)C)NC(=O)[C@@H](NC(=O)[C@@H](N)CC(=O)O)[C@@H](C)O)[C@@H](C)O)C(=O)N[C@@H](Cc2ccc(O)cc2)C(=O)N[C@@H](Cc2ccccc2)C(=O)NCC(=O)N[C@@H]([C@@H](C)O)C(=O)N[C@@H](Cc2c[nH]c3ccccc23)C(=O)N1)C(=O)N[C@@H](Cc1ccc(O)cc1)C(=O)NCC(=O)N[C@@H](CO)C(=O)N[C@H](C(=O)O)[C@@H](C)O` [23–652] (H-DTLTKSFCYFGTWCQMYGST-OH; disulfide 8-14): in experiment [1] (setting [4]), the kon was 36600 M⁻¹ s⁻¹.

Take `CC[C@H](C)[C@H](NC(=O)[C@H](CO)NC(=O)[C@H](Cc1c[nH]c2ccccc12)NC(=O)[C@H](CC(C)C)NC(=O)[C@H](CCSC)NC(=O)[C@@H]1CSSC[C@H](NC(=O)[C@H](CC(C)C)NC(=O)[C@@H](NC(=O)[C@H](CCC(N)=O)NC(=O)[C@H](CC(C)C)NC(=O)[C@@H](N)CC(C)C)[C@@H](C)O)C(=O)N[C@@H](CCC(N)=O)C(=O)N[C@@H](CCSC)C(=O)N[C@@H]([C@@H](C)O)C(=O)N[C@@H](CO)C(=O)N[C@@H](CC(=O)O)C(=O)N[C@@H](C)C(=O)N[C@@H](CCCNC(=N)N)C(=O)N[C@@H]([C@@H](C)O)C(=O)N1)C(=O)O` [23–443] (H-LLQTLCQMTSDARTCMLWSI-OH; disulfide 6-15 (inferred); N-terminus and C-terminus assumed): the Kd – broadly, the equilibrium constant for the complex coming apart – in experiment [1] (IL-23-AVI captured on streptavidin chip, 25°C, 1:1 binding model, n = 1, 23–447 an estimate, NB: not binding as free peptide) is over 30 µM. In addition, in experiment [1] (chemically synthesized peptide), the “binding to IL-23 as a free peptide” value is given as “did not retain its binding”.

As to “wild-type IL-23 displayed on yeast (from UniProt Q9NPF7;P29460) K20A”, in experiment [2], the response was 22.

As for “wild-type IL-23 displayed on yeast (from UniProt Q9NPF7;P29460) W26A”, the response in experiment [2] turned out to be 1.1.

B1: peptide 23–652 (free, chemically synthesized) (peptide)
peptide: DTLTKSFCYFGTWCQMYGST
notes: selected from a peptide phage library against IL-23; Two cysteines; also called FGLT-containing peptide; FGL-containing peptide; source: synthetic peptide (CPC Scientific)
B1: in experiment [3], the Kd stood at 0.0718 µM, the koff (usually the first-order rate constant of dissociation) was determined as 0.00263 s⁻¹ and the kon came out at 36600 M⁻¹ s⁻¹.

B2: peptide 23–644 (free, chemically synthesized) (peptide)
peptide: HVPDPCWFGLLCDVLNS
notes: selected from a peptide phage library against IL-23; Two cysteines; also called FGL-containing peptide; source: synthetic peptide (CPC Scientific)
In experiment [3], B2 yielded a Kd of 2.62 µM, a koff of 0.129 s⁻¹ and a kon of 49300 M⁻¹ s⁻¹.
